From patent US20240270857A1 (CHIA TAI TIANQING PHARMACEUTICAL GROUP, published 2024)

B1: BI655130 (antibody, human IgG1, kappa, L234A L235A)
heavy: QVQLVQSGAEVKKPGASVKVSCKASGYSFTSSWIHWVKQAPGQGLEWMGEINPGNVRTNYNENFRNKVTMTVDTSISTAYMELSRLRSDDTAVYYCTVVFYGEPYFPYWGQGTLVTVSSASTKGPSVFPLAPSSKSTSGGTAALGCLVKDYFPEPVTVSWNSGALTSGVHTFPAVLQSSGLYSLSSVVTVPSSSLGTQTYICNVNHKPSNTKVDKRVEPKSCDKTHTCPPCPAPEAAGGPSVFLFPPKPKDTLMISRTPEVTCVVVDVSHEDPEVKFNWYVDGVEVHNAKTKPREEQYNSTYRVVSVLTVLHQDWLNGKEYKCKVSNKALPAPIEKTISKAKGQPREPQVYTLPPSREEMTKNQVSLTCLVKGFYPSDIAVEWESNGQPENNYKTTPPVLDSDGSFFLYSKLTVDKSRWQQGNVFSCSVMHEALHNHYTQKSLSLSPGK
light: QIVLTQSPGTLSLSPGERATMTCTASSSVSSSYFHWYQQKPGQAPRLWIYRTSRLASGVPDRFSGSGSGTDFTLTISRLEPEDAATYYCHQFHRSPLTFGAGTKLEIKRTVAAPSVFIFPPSDEQLKSGTASVVCLLNNFYPREAKVQWKVDNALQSGNSQESVTEQDSKDSTYSLSSTLTLSKADYEKHKVYACEVTHQGLSSPVTKSFNRGEC
notes: also called Spesolimab
B2: chimeric 72C1 antibody (antibody, human IgG4 S228P, kappa)
heavy: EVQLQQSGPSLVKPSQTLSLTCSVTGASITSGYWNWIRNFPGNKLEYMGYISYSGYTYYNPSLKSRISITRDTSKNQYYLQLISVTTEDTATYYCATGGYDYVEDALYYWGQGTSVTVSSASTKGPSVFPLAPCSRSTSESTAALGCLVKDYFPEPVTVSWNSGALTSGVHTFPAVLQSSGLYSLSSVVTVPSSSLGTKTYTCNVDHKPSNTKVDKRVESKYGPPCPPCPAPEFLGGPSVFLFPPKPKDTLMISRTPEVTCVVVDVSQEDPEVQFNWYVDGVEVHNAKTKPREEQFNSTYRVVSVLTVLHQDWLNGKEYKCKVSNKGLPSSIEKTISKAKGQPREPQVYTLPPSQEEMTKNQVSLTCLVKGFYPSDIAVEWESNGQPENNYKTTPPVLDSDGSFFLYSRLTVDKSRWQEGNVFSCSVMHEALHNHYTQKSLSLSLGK
light: EILLTQSPAIMSATLGEKVTMSCRASSNVRYMYWYQLKSGASPKLWIYLTSNLASGVPARFSGSGSGTSYSLTISSVEAEDAATYFCQQFTTSPYTFGGGTKLEIKRTVAAPSVFIFPPSDEQLKSGTASVVCLLNNFYPREAKVQWKVDNALQSGNSQESVTEQDSKDSTYSLSSTLTLSKADYEKHKVYACEVTHQGLSSPVTKSFNRGEC
notes: Mouse variable regions on human IgG4 / kappa; also called xi72C1
B3: chimeric 84C4 antibody (antibody, human IgG4 S228P, kappa)
heavy: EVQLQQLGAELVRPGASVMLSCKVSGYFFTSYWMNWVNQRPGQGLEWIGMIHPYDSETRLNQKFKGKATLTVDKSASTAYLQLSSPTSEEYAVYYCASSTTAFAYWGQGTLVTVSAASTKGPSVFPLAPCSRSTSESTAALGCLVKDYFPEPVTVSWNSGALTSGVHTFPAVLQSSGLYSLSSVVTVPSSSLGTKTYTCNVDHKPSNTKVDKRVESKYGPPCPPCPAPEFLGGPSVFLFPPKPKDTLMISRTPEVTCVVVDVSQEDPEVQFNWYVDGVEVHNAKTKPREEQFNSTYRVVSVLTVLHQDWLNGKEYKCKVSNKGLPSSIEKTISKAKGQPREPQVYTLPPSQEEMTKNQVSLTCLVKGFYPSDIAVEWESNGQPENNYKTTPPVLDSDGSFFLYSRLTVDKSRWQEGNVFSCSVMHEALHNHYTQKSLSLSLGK
light: DILMTQSPSSLSASLGERVSLTCRASQDIGNALNWLQQAPDGTIKRLIYATSSLDPGVPKRFSGSRSGSDYSLTISSLASEDFVYYYCLQYASSPYTFGGGTKLEIKRTVAAPSVFIFPPSDEQLKSGTASVVCLLNNFYPREAKVQWKVDNALQSGNSQESVTEQDSKDSTYSLSSTLTLSKADYEKHKVYACEVTHQGLSSPVTKSFNRGEC
notes: Mouse variable regions on human IgG4 / kappa; also called xi84C4

Tests used:
[1] = molecular target: T1, cynomolgus IL-36R overexpressed on 293T-CynoIL36R-NFκB cells (cynomolgus monkey); assay: FACS on 293T-CynoIL36R-NFκB cells, ratio of MFI to background MFI
T1 construct: Entry includes the signal peptide; also called monkey IL-36R
T1 chain: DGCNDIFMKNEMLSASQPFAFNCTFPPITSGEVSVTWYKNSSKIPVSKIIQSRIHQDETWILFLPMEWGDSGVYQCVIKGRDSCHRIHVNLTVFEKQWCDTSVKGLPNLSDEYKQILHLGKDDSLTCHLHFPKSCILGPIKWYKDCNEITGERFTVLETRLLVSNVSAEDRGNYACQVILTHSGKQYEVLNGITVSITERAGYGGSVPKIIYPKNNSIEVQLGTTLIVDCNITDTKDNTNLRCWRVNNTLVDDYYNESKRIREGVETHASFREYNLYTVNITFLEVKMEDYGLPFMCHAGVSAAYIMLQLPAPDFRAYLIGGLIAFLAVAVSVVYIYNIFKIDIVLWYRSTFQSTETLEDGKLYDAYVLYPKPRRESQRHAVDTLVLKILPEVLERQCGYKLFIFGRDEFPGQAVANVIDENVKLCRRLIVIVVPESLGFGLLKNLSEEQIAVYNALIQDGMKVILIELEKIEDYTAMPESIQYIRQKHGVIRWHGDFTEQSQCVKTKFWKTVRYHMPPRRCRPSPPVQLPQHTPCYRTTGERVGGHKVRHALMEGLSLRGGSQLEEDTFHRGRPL
Method: After the cells was washed with PBS, the cells were resuspended with 100 μL of PBS and then the fluorescence signal was detected using a flow cytometer (BD, Accuri C6). […] The ratio was the ratio of mean fluorescence intensity (MFI) of the experimental group/the background MFI, and the resulting data were analyzed using GraphPad Prism.

[2] = molecular target: T2, IL-36R naturally expressed on OVCAR8 cells and on normal human epidermal keratinocytes (NHK cells) (human, UniProt Q9HB29 20-575); assay: cell-based or functional assay
T2 sequence (looked up): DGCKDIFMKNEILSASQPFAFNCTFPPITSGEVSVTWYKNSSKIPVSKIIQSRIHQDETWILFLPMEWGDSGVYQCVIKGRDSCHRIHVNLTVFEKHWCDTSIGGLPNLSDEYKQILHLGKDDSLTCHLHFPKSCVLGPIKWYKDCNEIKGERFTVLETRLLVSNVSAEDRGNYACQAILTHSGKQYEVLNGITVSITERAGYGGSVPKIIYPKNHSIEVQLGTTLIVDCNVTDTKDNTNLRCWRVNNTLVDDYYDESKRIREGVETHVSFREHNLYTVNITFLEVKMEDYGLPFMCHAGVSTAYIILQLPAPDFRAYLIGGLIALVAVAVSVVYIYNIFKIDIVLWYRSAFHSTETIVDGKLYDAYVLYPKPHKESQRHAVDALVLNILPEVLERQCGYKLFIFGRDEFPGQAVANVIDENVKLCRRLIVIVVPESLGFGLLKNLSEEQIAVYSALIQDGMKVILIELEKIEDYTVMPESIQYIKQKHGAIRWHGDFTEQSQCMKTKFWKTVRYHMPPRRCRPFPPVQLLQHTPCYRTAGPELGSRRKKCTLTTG

[3] = molecular target: T3, CynoIL36R-ECD mFc recombinant protein (cynomolgus monkey); assay: ELISA, plate coated with CynoIL36R-ECD mFc, HRP-protein A/G, OD450
T3 construct: Made in ExpiCHO, purified on Protein A; also called cynomolgus IL-36R extracellular region with mouse antibody heavy chain Fc
T3 chain: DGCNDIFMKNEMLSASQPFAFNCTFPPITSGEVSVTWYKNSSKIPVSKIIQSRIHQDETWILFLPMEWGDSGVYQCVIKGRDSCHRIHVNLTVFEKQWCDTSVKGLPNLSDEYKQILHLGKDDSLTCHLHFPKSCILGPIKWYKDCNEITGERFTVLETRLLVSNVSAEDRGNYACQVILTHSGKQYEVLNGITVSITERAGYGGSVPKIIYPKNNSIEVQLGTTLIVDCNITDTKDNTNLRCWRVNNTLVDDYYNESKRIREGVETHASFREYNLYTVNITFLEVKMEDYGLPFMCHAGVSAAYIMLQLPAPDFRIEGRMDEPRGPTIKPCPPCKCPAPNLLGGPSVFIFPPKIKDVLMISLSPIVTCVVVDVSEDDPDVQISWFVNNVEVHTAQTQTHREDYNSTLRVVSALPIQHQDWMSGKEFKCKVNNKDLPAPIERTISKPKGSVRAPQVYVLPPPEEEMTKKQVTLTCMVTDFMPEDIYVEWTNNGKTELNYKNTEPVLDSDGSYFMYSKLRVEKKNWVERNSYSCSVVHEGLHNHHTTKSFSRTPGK
Method: The binding activity of anti-IL-36R antibodies to IL-36R was analyzed by ELISA using human IL-1Rrp2/IL-1R6 protein, His Tag (ACROBiosystems, IL2-H52H6) and CynoIL36R-ECD mFc (for detection of chimeric and humanized antibodies), and hIL36R-ECD hFc and CynoIL36R-ECD hFc protein (for detection of hybridoma antibodies) as antigens. A 96-well plate (Costar, 9018) was coated with 2 μg/mL antigen at 100 μL/well and incubated overnight at 4° C. After the 96-well plate was washed with a washing buffer (PBS containing 0.05% v/v Tween 20), a blocking buffer (PBS containing 2% bovine serum albumin) was added for blocking at 37° C. for 2 h. After the 96-well plate was washed with the washing buffer, 100 μL of the gradient diluted anti-IL-36R antibody of the present disclosure or the reference antibody BI655130 (the initial concentration of the antibody was 66 nM, 4-fold gradient dilution) was added to each well, and the plate was incubated at room temperature for 1 h. After the 96-well plate was washed with the washing buffer, 100 μL of horseradish peroxidase-conjugated recombinant protein A/G (TheroScientific, 32490) was added to each well, and the plate was incubated at room temperature for 1 h. After the 96-well plate was washed with the washing buffer, 100 μL of a TMB solution (Thermo, 00-4201-56) was added to each well, and the plate was incubated at room temperature for 2 min. Finally, 100 μL of a stop solution (2 N H₂SO₄) was added to each well to stop the reaction. Absorbance was read at 450 nm using a microplate reader (PE, Envision), the resulting data was analyzed using GraphPad Prism, and EC₅₀ was calculated. Binding EC₅₀ of the chimeric anti-IL-36R antibodies to hIL-36R in an ELISA assay is shown in FIG. 1. and binding EC₅₀ of the chimeric anti-IL-36R antibodies to CynoIL-36R in an ELISA assay is shown in FIG. 2. The binding of BI655130 is shown as a control, and the binding of IgG4 is shown as a negative control.

| Binder | EC50 [1] [nM] | IC50; IL-8 production of NHK cells stimulated with hIL36β, inhibition rate % [2] [nM] | EC50 [3] [nM] |
| --- | --- | --- | --- |
| B1 | 9.64 | 0.248 | 1.89 |
| B2 | 8.96 | 0.474 | 3.02 |
| B3 | 36.6 | 0.848 | 21.9 |
